From the DeepSol protein solubility set

experiment: soluble on expression in E. coli; label from the status in PepcDB or PDB records

Soluble on expression in E. coli, not soluble:
MGSDKIHHHHHHMKTRQEALDYGLSFPNTYQEAPFHDPNWQLIRVKDSKKVFLWTYERNGFINLNVKVSPAWRDFWRDAFPSVIPGWHQNKDNWNTIILDGSIPDDAIKNMISDSYDLVTYNPTRLIYEAVKRIPKGCVATYAQVAELAGNKKMCRAVGNALHKNPNPDEIPCYRVVNAKGELSGAFAFGGADEQANRLRADGIEVIDGRVDLDKYGIRIVDDVIYTKTTVEPLT
MGSDKIHHHHHHMKTSPRSNRLHIALFGKRNSGKSSLINALTNQNAALVSDIAGTTTDPVYQPMEIHGIGPCVFIDTAGFDDEGELGSLRIERTLQAADKADIALMVCCDTELSEEQRWIELLKERNIPYLLVLNKADLLEKPDEVADKLEQQTGQHPLIVSAKEKTGIDSIRQSILHRLPELNEQPDIVGDLANEGDVVLLVMPQDIQAPKGRLILPQVQTLRELLDKKCITLSCTTDQLDNALKALSVPPSLIITDSQVFRTVYEKKPPQSRLTSFSVLFARYKGDIDYYTEGAYIIDQLTENSRVLIAEACTHAPLSEDIGRVKLPRMLRKRIGEKLHIDIVSGNDFPKDLNCYDLIIHCGACMFNRKHVLNRIVKAKAQGVPMTNYGIVIAYINGIPFH
MGSDKIHHHHHHMKTTFNLSRFYKACNPSYTLNISNVLDRQYYIDFADVRGCKIVEELQRTIVRISPDEPTCQLFTGHIGCGKSTELQRLKTELELAGFHVVYFESSQDLDMADIDISDILLSVARQVSASLEGINIKLKGGYFTNLFKEVGDFLQSPIELSGQAELSLGIAKITAKTKDSTQMRNQLRQYLEPRTNSILQAINEEILERAVEQLKLRGQKGLVVIVDNLDRVDMRPLASGRSQPEYLFIDRGEQLRRLKCHLVYTIPLTLIFSNEYETLKNRLGGGIAPKVLPMVLVRQRDGSDYEPGMSLVRQLVLARAFPEVSLNERLLLITELFDHSQTLDRICRVSGGHIRNLLGLLYSCLQRQDPPFSRECLEAVIKDYRDDLLLAIDESQWELLFEVVQQQRVKGESDYQSLLRSMYLFEYRDPLGRWFGISPALAETEKVLAWQQKK
MGSDKIHHHHHHMKVALLSPIAWRTPPRHYGPWERVVSLIAEGLVKKGVDVTLFATGDSKTAGRLEYICPIPYEENPNMDAKVWEAMHIAHLFEQAHKFDIIHNNYDFLPLSYSRQVDTPMITTIHGFSSPKILPIYREYNRNNYYVSISNADRSPDLDYYATVYHGIDLNELTLKLNAGSYLLYFGRIHPDKGTAQAIEIARKSDMQLLIAGIIQDKQYFNQQIYPRIDNKKVIYLGSVGPAKRDELLGNALALLHPIHFNEPFGLSVIEAMACGTPVIAFNKGSMPEVIKDGETGFLVDNVEMACEKLGSINKIKRANCRYWVEENFSQERMVSDYLSLYQEIIKGGKLPVRTPSLSGRCK
MGSDKIHHHHHHMKVEVNSQALADAVAWTTRVIDARPATPILAGIRLEAIDGTLQLSAFNYAISARHHIEAGVDEAGSVLVLGKLLADITKSLPAAKTYLSTDGSTMTITSGKSTFTMQLMPESEYPDLPVVPTKLGQVDSPTFAQAVNQASVAVSREENRPVLTGIRVQFQGDKVIMSSTDRFRLARSSFTWTPEDATISTTALVRGSLLRDMARSLDEHQNVTIDFDADNPSLLGFENAGRVSTSQLIDGEFPAVDRLYADEYPIHAVINKQALIDAIKRVSLVAERNAPIRMVFSGQELTLSAGTADEAQAKEILDIDMDGEDITVAFNPSYLVDGLSAISEPFVRMKMTTAVKPVEFNGQQEADSDESMDYRYLLVPMRFNN
MGSDKIHHHHHHMKVKAPGRINIIGEHTDYNDGYVLPFAVNRYVFLSIEGSERFIFHSENVNETVEMEKIEKLNKWTDYISGVIASFEKRGYRVSPVKISVSSNLPIGAGLSSSAALEVATAYAISEYFGFNVPKLELVKIAREAEVEFVGVRCGIMDQFTAVFGKKDHAIFLDTMTLEYEYVPLKLEGYEINLVDSNVKHELSSSEYNRRRQECEEVLKTLEKKSFREVTKEDLERLSGTLRKRAQHVLEENERVLKSVQALKEGDFETLGKLLFSSHESLRDLYEVSCEETDFIVDYLRGKEGILGARMVGGGFGGGVIVLSKKGAFGKIKEELVESYRKRFGIDLIFHEIESSDGVQKI
MGSDKIHHHHHHMKVLLTRPEGRNQSMVDALNERGIEHCVTPLLCVEATPALPPETSHPLANVDMVVCISANAVSFADDTFKANDANVKGWPKVPYFAVGHATWEALQQIDIDALEAPDDCQQTEGLLTLPTLQHIQGKKITIIRGVGGREALAEQLTSRGAQVRYWEVYQRACPPLDGTIITQQWIDLGIDTVVVTSGEVLDNLINLVPKELFAWLRSCHIIVPSNRVEAQAHAFGITQVTNANAANSKAVLNALKL
MGSDKIHHHHHHMKVLVFDVSAPYALFRRPYTTTSSYTLPFPPRTTLLGLVGCVLGYSTPERLDSAKVAVQIKNPLKFLRTGTNFVETKKDKKASKRTRISLQLLKNPAYRVFFSWEDEDFERLKNLLEHSETIFTPYLGVASFIARLNYVGKYEATRVADFPCEVHTVVPNTVKLLPEPSHYLIFERVTRKMDKERNMLESAVYIFKRDLSPVKVEGGEVWRVGEQNIVWM
MGSDKIHHHHHHMKWNSNLYDHKHSFVAEYGKSMINFVNVGKDQKILDLGCGTGVLTNELAKNGATVIGTDLSKNMIDKAKTNYPNLIFQVKDATNLSFKNEFDTVFSNAVFHWISNQEKLLHSIYTCLKDNGTLICEFGAQNNISQIQTAFEKVIEQKGYSYCSPFFFPSKEEYKLLLDQAGFEVKHIIEYDRPTPLADGEKGLRNWICQFFASDLLEFSDEQKEQILFETEKLCKNSIWKNNQWVADYRRIQIIAVKNKNNGTK
MGSDKIHHHHHHMLAFAARTVVKPLGLLKPSSLMKVSGRFKAHQDALPRLPVPPLQQSLDYYLKALQPIVSEEEWAHTKQLVDEFQTSGGVGERLQKGLERRAKKMENWLSEWWLKTAYLQFRQPVVIYSSPGVILPKQDFVDLQGQLRFAAKLIEGVLDFKSMIDNETLPVEFLGGQPLCMNQYYQILSSCRVPGPKQDSVVNFLKSKRPPTHITVVHNYQFFELDVYHSDGTPLTSDQIFVQLEKIWNSSLQSNKEPVGILTSNHRNTWAKAYNNLIKDKVNRESVNSIQKSIFTVCLDKQVPRVSDDVYRNHVAGQMLHGGGSKFNSGNRWFDKTLQFIVAEDGSCGMVYEHAAAEGPPIVALVDHVMEYTKKPELVRSPMVPLPMPKKLRFNITPEIKNDIEKAKQNLSIMIQDLDIMMLTFHHFGKDFPKSEKLSPDAFIQVALQLAYYRIYGQACATYESASLRMFHLGRTDTIRSASIDSLAFVKGMGDSTVPEQQKVELLRKAVQAHRAYTDRAIRGEAFDRHLLGLKLQAIEDLVSMPDIFMDTSYAIAMHFNLSTSQVPAKTDCVMFFGPVVPDGYGICYNPMEAHINFSVSAYNSCAETNAARMAHYLEKALLDMRTLLQNHPRAKL
MGSDKIHHHHHHMLAGGKMGDMKITRHIHACVEISQGNDRIIIDPGTFGAPDLCGATILVTHNHADHVDPELLKPGMTIYAPRSVAHSIPVECHIVEHGRNFTVGSLSVEVLGSEHAMLTHSMPIAENVGYLINGRVLHPGDTFQPIKDVELALVPVNGPWVKMLDVEGYLKKFPPKRFIGIHDGIVNDRGLAINKKFLTHLGETYGSEYSPLEEGESLEI
MGSDKIHHHHHHMLAQGQRFEGLLCGDDSSRCEVVEMAKLTQFLISGACALLITATSAIADPIAPAGKAIGQDGGGHTIYQVDANGISIGYKLIGQGAPMVMIMGLGGTADNWPPQVIEALSKNHQLILMDNRGMGHTTANDTPFSYPLFAADVIGLLDALGIKRSDVLGYSMGSTITQQLLLQYPDRFNKALIHATSTDGSNVAKALHGRVPTDPIVARQVEATTHWKTPLDKLPSIDNQVMLVVGTADNVVGTESSKTIASAIPGAWLVQFKGATHHLMYETPEGFSAAALTFFETNETVTPKIEPNASVAPPPTQP
MGSDKIHHHHHHMLDSLFPIKRNYLDRNGHKLQYVNEGQGEPVVMVHGNPSWSFYYRNLVTALSPNHQCIVPDHIGCGLSDKPDDAGYDYTLKNRIDDLEALLDHLEVKEKITLIVHDWGGMIGMGYAARHPERIKKIVVLNTGAFHLPEAKPFPWALWICRNTLLGTVLVRGFNAFSSIASYVGVKRAPMPKAIREAYVAPFNSWANRISTLRFVQDIPLKPGDRNYELVSEISEKLNQFNQLPMMICWGLKDFVFDKHFLDEWKRRFPEAEVHEFADCGHYILEDASDEVVAQVQQFMAR
MGSDKIHHHHHHMLEFPALRPFLWSGRYNRPLMPLTYLTRIAQTPAPTFQEEARAELIARLWSDLGYVTERDEVGNVLTRITPPGTEGRPALLLAAHLDTVFGGQTDVTVHDEGQRLRGPGVGDNSASLAVVTAMLRDFRTAPPLLRRPLWVAANVGEEGLGDLRGAKHLLAAHRPQLGAFVAVDGYLGVAVTQAVGVRRYRAQFVGPGGHSWGDQAPSALHALGLAISGLYALHLPAQPRTTLNVGTAAGGNSVNSIAGQAELLLDLRSLGADELAALDSRAQDVLHRAARDAGVSLRLERVGDRPGGDLHTGALLGMAHAAAREVRVDLRLAASSTDANAAAPHVLPALAFGVYRGGNAHREDEWVEKRSLAPGLTALKRLVALYQAAPLA
MGSDKIHHHHHHMLENRVKTKQIFIGGVAIGGDAPISTQSMTFSKTADIESTKNQIDRLKLAGADLVRVAVSNEKDALALKELKKVSPLPLIADIHFHYKFALIAAQSVDAIRINPGNIGSKEKIKAVVDACKEKNIPIRIGVNAGSLEKQFDQKYGPTPKGMVESALYNAKLLEDLDFTNFKISLKASDVIRTIEAYRMLRPLVIYPFHLGVTEAGNLFSSSIKSAMALGGLLMEGIGDTMRVSITGELENEIKVARAILRHSGRLKEGINWISCPTCGRIEANLVDMAIKVEKRLSHIKTPLDISVMGCVVNALGEAKHADMAIAFGNRSGLIIKEGKVIHKLAEKDLFETFVIEVENLAKEREKSLKD
MGSDKIHHHHHHMLFSAPPVLAPVVPGKALEFPQDFGAHNDFRIEWWYVTGWLETPTGKPLGFQITFFRTATEIDRDNPSHFAPDQLIIAHVALSDPAIGKLQHDQKIARAGFDLAYARTGNTDVKLDDWIFVRETDGRYRTRIEAEDFTLTFILTPSQPLMLQGENGFSRKGPGAPQASYYYSEPHLQVSGIINRQGEDIPVTGTAWLDREWSSEYLDPNAAGWDWISANLDDGSALMAFQIRGKDDSKIWAYAALRDASGHTRLFTPDQVSFHPIRTWRSARTQAVYPVATRVLTGETEWQITPLMDDQELDSRASAGAVYWEGAVTFTRDGQPAGRGYMELTGYVRPLSM
MGSDKIHHHHHHMLGDLLTTFFEVARQGSITTAARQLGVSQPTVTARIRQLEDVYGVELFYRRASRVDLSDVGVALMPVVEQLMQQESNADYLLRNAGNLRFGNLRIGATGPYYILRSVAAFRQRYPAVEVSIEIGNSQQMIEALLEYRIDAAVSSHAVDDSRLARIRLASDPMVLVVHPEHPFARMPHIDIARLAECHLLVREHGSMTRQATEAALAACGQELPRHMVIGSREAIYEAIRQNIGASVVPAGEVPRDPSLRIVPFAQRPPVIHEYLYCLESRRHTRLVGALLECVESLAPHQQAQAA
MGSDKIHHHHHHMLGLPGEMQYVPGIHSPNEGPRPMTIQRKQTREVRIGKVRIGGANPVVVQSMTNTDTRDVEQTVEQIRQLQEAGCEIVRLAVLNEDAAWAIKPIRSQVSVPLVADIHFDHRLAVSALEAGVDALRINPGNIGTRAAVDRVVDAAKAHNAVIRIGVNSGSLETDLIDQYGGPTPEAMVESAFRHIRMLEDRNFGDIKVSLKSSSVSRCIEAYTLLSAKCDYPLHIGVTEAGTVLRGSIKSAVGLGVLLWQGIGDTLRVSLTSDPVAEMAVAWEILRSLGLRSRGPEIIACPTCGRCEIGLIALAEEVERRLEGETESFKVAVMGCVVNGPGEAREADLGIAGGRDKGIIFRKGEIVRTVKGGSNLLAAFMEELDTFLAHRRAERKDD
